Laboratory results published in PMC10924945.
Changes are numbered by the printed parent chain.

Tests used:
Test in all cases: EMSA
[1] = target: T1, BfmR R210A R210A (Pseudomonas aeruginosa PAO1) (UniProt Q9HWS7)
T1 sequence: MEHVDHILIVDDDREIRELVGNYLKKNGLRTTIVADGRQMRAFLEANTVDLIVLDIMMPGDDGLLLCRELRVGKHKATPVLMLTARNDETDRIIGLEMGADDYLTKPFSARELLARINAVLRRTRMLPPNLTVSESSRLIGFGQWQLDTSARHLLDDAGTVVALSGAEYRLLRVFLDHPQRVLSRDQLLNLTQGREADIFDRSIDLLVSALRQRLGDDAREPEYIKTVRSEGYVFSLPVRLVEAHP

[2] = target: T2, BfmR T227A T227A (Pseudomonas aeruginosa PAO1) (UniProt Q9HWS7)
T2 sequence: T1 sequence with A210R, T227A

[3] = target: T3, BfmR D205A D205A (Pseudomonas aeruginosa PAO1) (UniProt Q9HWS7)
T3 sequence: T1 sequence with D205A, A210R

[4] = target: T4, BfmR R202A R202A (Pseudomonas aeruginosa PAO1) (UniProt Q9HWS7)
T4 sequence: T1 sequence with R202A, A210R

[5] = target: T5, BfmR R185A R185A (Pseudomonas aeruginosa PAO1) (UniProt Q9HWS7)
T5 sequence: T1 sequence with R185A, A210R

[6] = target: T6, BfmR R212A R212A (Pseudomonas aeruginosa PAO1) (UniProt Q9HWS7)
T6 sequence: T1 sequence with A210R, R212A

[7] = target: T7, BfmR (Pseudomonas aeruginosa PAO1) (UniProt Q9HWS7)
T7 sequence: T1 sequence with A210R

[8] = target: T8, BfmR S209A S209A (Pseudomonas aeruginosa PAO1) (UniProt Q9HWS7)
T8 sequence: T1 sequence with S209A, A210R

**Q.** What does the source list for “CATCGGATTCCTGCGAATACTACTGATAACGATAATCTCTATCATTTACTCCATTTTTACATTTACATACACTTGCCCCGCCGCGAATTCCTACGCCGGTTTCCCACATAAACAAGAAACGC (double strand) [PfpvB]”?
**A.** binding [1]: binds more weakly; binding [2]: binds more weakly; binding [3]: binds more weakly; binding [4]: binds more weakly; binding [5]: binds more weakly; binding [6]: binds more weakly; binding [7]: binds; binding [8]: binds more weakly
